Experimental data from US20190055316A1.

Assays:
[1] = molecular target: native human MSLN expressed on the cell surface (N87 tumor cells) (human) (UniProt Q13421); assay: KinExA equilibrium binding to N87 tumor cells expressing native human MSLN
[2] = molecular target: native human MSLN expressed on the cell surface (N87 tumor cells) (human) (UniProt Q13421); assay: KinExA on N87 cells compared with Biacore on soluble MSLN
[3] = molecular target: recombinant human soluble MSLN (human) (UniProt Q13421); assay: Biacore (SPR), antibody captured on chip, rHuMSLN sol. in flow
Chain of recombinant human soluble MSLN (human) (Q13421 296-606 limits assumed): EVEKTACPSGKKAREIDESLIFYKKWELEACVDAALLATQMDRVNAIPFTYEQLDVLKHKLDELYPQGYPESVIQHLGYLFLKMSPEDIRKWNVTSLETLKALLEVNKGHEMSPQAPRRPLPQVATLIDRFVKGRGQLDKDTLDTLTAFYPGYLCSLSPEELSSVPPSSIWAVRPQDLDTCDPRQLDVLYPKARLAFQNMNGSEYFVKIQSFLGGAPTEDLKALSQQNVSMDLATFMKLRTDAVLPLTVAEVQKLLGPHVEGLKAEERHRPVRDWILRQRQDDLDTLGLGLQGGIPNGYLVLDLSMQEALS

Chain of native human MSLN expressed on the cell surface (N87 tumor cells) (human) (Q13421 296-606 limits assumed): as above

- Kd [1]: 3.5 pM
- fold higher selectivity for native surface bound MSLN compared to soluble MSLN [2]: 30 fold
- Kd [3]: 97 pM
B1: Ab237 (antibody, V domains shown)
VH: QVQLQESGPGLVKPSQTLSLTCTVSGGSINNNNYYWTWIRQHPGKGLEWIGYIYYSGSTFYNPSLKSRVTISVDTSKTQFSLKLSSVTAADTAVYYCAREDTMTGLDVWGQGTTVTVSS
VL: DIQMTQSPSSLSASVGDRVTITCRASQSINNYLNWYQQKPGKAPTLLIYAASSLQSGVPSRFSGSRSGTDFTLTISSLQPEDFAAYFCQQTYSNPTFGQGTKVEVK
